Measured values from the Human Domainome abundance scans (Beltran et al. 2025).
± gives the uncertainty stated by the source.

B1: Chromodomain-helicase-DNA-binding protein 3, residues 374 to 426; numbered along this chain, Q12873 (parent)
chain: YETDHQDYCEVCQQGGEIILCDTCPRAYHLVCLDPELDRAPEGKWSCPHCEKE

Variants of: B1
Experiment: abundance fitness (aPCA) (normalised: wild type 0, dead -1); higher = more abundant; growth selection in yeast, the domain comes from the species named
Settings: Homo sapiens

Point of comparison: P35V, abundance fitness 0.029 ± 0.088. Against it:
- P48T — lower, -0.24 ± 0.16
- P48W — lower, -0.358 ± 0.14
- P48N — within error, -0.014 ± 0.18
- P48A — within error, -0.002 ± 0.11
- P48M — within error, -0.07 ± 0.12
- P48E — within error, -0.074 ± 0.14
- P48G — within error, -0.031 ± 0.097
- P48S — lower, -0.217 ± 0.11
- P48K — within error, -0.109 ± 0.13
- P48Q — within error, -0.078 ± 0.2
- P48V — within error, -0.139 ± 0.11
- P48D — lower, -0.416 ± 0.18
- P48H — lower, -0.599 ± 0.28
- P48F — lower, -0.528 ± 0.24
- P48C — within error, -0.203 ± 0.15
- R39A — within error, 0.068 ± 0.14
- R39I — within error, 0.149 ± 0.17
- R39C — within error, -0.221 ± 0.17
- R39W — within error, -0.2 ± 0.19
- R39M — within error, -0.009 ± 0.18
- R39P — within error, -0.084 ± 0.24
- R39D — within error, -0.138 ± 0.17
- R39Y — within error, -0.027 ± 0.19
- R39L — within error, -0.156 ± 0.14
- R39V — lower, -0.248 ± 0.11
- R39Q — within error, -0.182 ± 0.26
- R39F — lower, -0.254 ± 0.14
- R39S — within error, 0.01 ± 0.12
- R39T — within error, -0.037 ± 0.17
- R39H — within error, -0.248 ± 0.25
- R39G — within error, -0.123 ± 0.13
- R39N — within error, 0.034 ± 0.21
- D38C — lower, -0.259 ± 0.19
- D38T — within error, -0.169 ± 0.21
- D38M — lower, -0.416 ± 0.18
- D38Y — lower, -0.522 ± 0.28
- D38A — within error, -0.035 ± 0.15
- D38F — within error, -0.082 ± 0.22
- D38R — lower, -0.352 ± 0.13
- D38K — lower, -0.518 ± 0.24
- D38L — lower, -0.216 ± 0.11
- D38V — within error, 0.011 ± 0.12
- D38Q — lower, -0.326 ± 0.19
- D38H — within error, 0.066 ± 0.43
- D38P — within error, -0.129 ± 0.15
- D38S — within error, -0.09 ± 0.13
- D38N — lower, -0.552 ± 0.16
- D38W — lower, -0.319 ± 0.18
- D38G — within error, -0.142 ± 0.15
- L33R — lower, -0.39 ± 0.091
- L33V — within error, -0.182 ± 0.13
- L33T — lower, -0.208 ± 0.1
- L33Y — within error, -0.133 ± 0.15
- L33S — lower, -0.286 ± 0.11
- L33P — lower, -0.427 ± 0.12
- K44M — within error, -0.011 ± 0.19
- K44W — lower, -0.525 ± 0.14
- K44C — within error, -0.071 ± 0.14
- K44N — within error, -0.492 ± 0.45
- K44T — lower, -0.304 ± 0.18
- K44V — lower, -0.39 ± 0.13
- K44Q — within error, 0.038 ± 0.14
- K44L — within error, -0.011 ± 0.11
- K44Y — lower, -0.395 ± 0.26
- K44I — within error, 0.363 ± 0.25
- K44R — within error, 0.043 ± 0.1
- K44G — within error, 0.101 ± 0.092
- K44P — lower, -0.264 ± 0.16
- K44S — within error, 0.077 ± 0.13
- K44E — within error, -0.096 ± 0.13
- K44D — lower, -0.329 ± 0.24
- K44F — within error, -0.136 ± 0.37
- E53I — within error, -0.37 ± 0.36
- E53H — lower, -0.426 ± 0.3
- E53T — within error, -0.187 ± 0.31
- E53D — lower, -0.374 ± 0.23
- E53C — lower, -0.584 ± 0.47
- E53S — lower, -0.48 ± 0.22
- E53M — within error, -0.19 ± 0.28
- E53G — within error, -0.118 ± 0.15
- E53V — lower, -0.309 ± 0.17
- E53Q — within error, -0.118 ± 0.26
- E53R — lower, -0.276 ± 0.21
- E42Y — within error, -0.219 ± 0.16
- E42C — within error, -0.005 ± 0.13
- E42A — lower, -0.171 ± 0.1
- E42T — within error, -0.173 ± 0.2
- E42G — within error, 0.003 ± 0.1
- E42R — lower, -0.232 ± 0.11
- E42P — within error, -0.138 ± 0.2
- E42S — within error, -0.06 ± 0.12
- E42V — within error, -0.044 ± 0.1
- E42M — within error, -0.203 ± 0.17
- E42Q — within error, -0.088 ± 0.17
- E42D — lower, -0.484 ± 0.19
- E42W — lower, -0.396 ± 0.14
- E42L — within error, 0.066 ± 0.1
- E42F — lower, -0.296 ± 0.17
- E42K — within error, -0.181 ± 0.22
- E42H — within error, 0.164 ± 0.21
- S46W — within error, -0.043 ± 0.17
- S46G — within error, -0.03 ± 0.087
- S46K — within error, -0.084 ± 0.17
- S46Q — within error, 0.127 ± 0.18
- S46P — lower, -0.327 ± 0.19
- S46I — within error, 0.12 ± 0.16
- S46L — within error, -0.033 ± 0.1
- S46A — within error, -0.064 ± 0.11
- S46T — within error, -0.073 ± 0.14
- S46M — within error, -0.186 ± 0.18
- S46E — within error, -0.122 ± 0.12
- S46C — lower, -0.308 ± 0.14
- S46H — lower, -0.526 ± 0.32
- S46R — within error, -0.037 ± 0.097
- S46F — within error, -0.104 ± 0.14
- S46D — within error, -0.135 ± 0.14
- S46V — within error, -0.085 ± 0.1
- S46Y — within error, 0.08 ± 0.15
- P35I — lower, -0.3 ± 0.23
- P35Y — within error, 0.015 ± 0.17
- P35M — within error, -0.095 ± 0.15
- P35E — lower, -0.306 ± 0.11
- P35C — within error, -0.117 ± 0.17
- P35D — within error, 0.039 ± 0.14
- P35N — within error, -0.196 ± 0.24
- P35H — within error, -0.052 ± 0.31
- P35L — within error, -0.11 ± 0.098
- P35G — within error, -0.044 ± 0.1
- P35S — within error, -0.068 ± 0.11
- P35T — within error, -0.013 ± 0.14
- P35W — within error, -0.167 ± 0.16
- P35K — within error, -0.183 ± 0.15
- L37T — lower, -0.275 ± 0.14
- L37G — within error, -0.108 ± 0.1
- L37C — within error, -0.142 ± 0.14
- L37V — within error, -0.143 ± 0.12
- L37Y — within error, 0.073 ± 0.15
- L37Q — within error, -0.21 ± 0.16
- L37F — lower, -0.426 ± 0.16
- L37H — within error, -0.037 ± 0.17
- L37S — lower, -0.295 ± 0.1
- L37N — within error, -0.189 ± 0.24
- L37R — within error, -0.094 ± 0.11
- L37W — lower, -0.298 ± 0.2
- L37D — within error, -0.228 ± 0.17
- L37E — lower, -0.732 ± 0.28
- L37I — within error, -0.191 ± 0.24
- L37K — within error, -0.116 ± 0.18
- L37P — within error, -0.154 ± 0.12
- K52D — lower, -0.413 ± 0.24
- K52S — within error, 0.049 ± 0.12
- K52A — lower, -0.264 ± 0.14
- K52H — lower, -0.38 ± 0.28
- K52P — within error, 0.104 ± 0.18
- K52W — lower, -0.487 ± 0.17
- K52E — lower, -0.308 ± 0.22
- K52N — within error, -0.024 ± 0.18
- K52G — within error, -0.137 ± 0.1
- K52L — lower, -0.308 ± 0.12
- K52R — within error, 0.013 ± 0.11
- K52T — within error, 0.01 ± 0.2
- K52V — lower, -0.357 ± 0.14
- K52M — within error, -0.156 ± 0.23
- G43Y — lower, -0.277 ± 0.17
- G43T — within error, -0.128 ± 0.18
- G43C — lower, -0.369 ± 0.13
